These results are taken from patent US20150080549A1 (Chugai, published 2015).

Sequences and labels used below:
B1: Compound SP844 (peptide)
peptide: A[Phe(4-CF3)]WWV[Sar]GP[Hyp(Et)]SD[NMeS][Met(O2)]S-OH
modifications: lactam N-11
SMILES: CCO[C@@H]1C[C@H]2C(=O)N[C@@H](CO)C(=O)N[C@H](C(=O)N(C)[C@@H](CO)C(=O)N[C@@H](CCS(C)(=O)=O)C(=O)N[C@@H](CO)C(=O)O)CC(=O)N[C@@H](C)C(=O)N[C@@H](Cc3ccc(C(F)(F)F)cc3)C(=O)N[C@@H](Cc3c[nH]c4ccccc34)C(=O)N[C@@H](Cc3c[nH]c4ccccc34)C(=O)N[C@@H](C(C)C)C(=O)N(C)CC(=O)NCC(=O)N3CCC[C@H]3C(=O)N2C1
notes: Chemically synthesized, HPLC purified
B2: Compound SP845 (peptide)
peptide: A[NMeAla(4-thiazolyl)]IPVWW[Phe(4-CF3)][Met(O2)]VDW[NMeAla(4-thiazolyl)]S-OH
modifications: lactam N-11
SMILES: CC[C@H](C)[C@@H]1NC(=O)[C@H](Cc2cscn2)N(C)C(=O)[C@H](C)NC(=O)C[C@@H](C(=O)N[C@@H](Cc2c[nH]c3ccccc23)C(=O)N(C)[C@@H](Cc2cscn2)C(=O)N[C@@H](CO)C(=O)O)NC(=O)[C@H](C(C)C)NC(=O)[C@H](CCS(C)(=O)=O)NC(=O)[C@H](Cc2ccc(C(F)(F)F)cc2)NC(=O)[C@H](Cc2c[nH]c3ccccc23)NC(=O)[C@H](Cc2c[nH]c3ccccc23)NC(=O)[C@H](C(C)C)NC(=O)[C@@H]2CCCN2C1=O
notes: as for B1
B3: Compound SP846 (peptide)
peptide: ATIP[dY]WW[Phe(4-CF3)][Met(O2)]VDW[NMeAla(4-thiazolyl)]S-OH
modifications: lactam N-11
SMILES: CC[C@H](C)[C@@H]1NC(=O)[C@H]([C@@H](C)O)NC(=O)[C@H](C)NC(=O)C[C@@H](C(=O)N[C@@H](Cc2c[nH]c3ccccc23)C(=O)N(C)[C@@H](Cc2cscn2)C(=O)N[C@@H](CO)C(=O)O)NC(=O)[C@H](C(C)C)NC(=O)[C@H](CCS(C)(=O)=O)NC(=O)[C@H](Cc2ccc(C(F)(F)F)cc2)NC(=O)[C@H](Cc2c[nH]c3ccccc23)NC(=O)[C@H](Cc2c[nH]c3ccccc23)NC(=O)[C@@H](Cc2ccc(O)cc2)NC(=O)[C@@H]2CCCN2C1=O
notes: as for B1
B4: Compound SP848 (peptide)
peptide: ATWI[NMeF][Phg]W[βAla][Phe(4-CF3)][Phg]DVTS-OH
modifications: lactam N-11
SMILES: CC[C@H](C)[C@@H]1NC(=O)[C@H](Cc2c[nH]c3ccccc23)NC(=O)[C@H]([C@@H](C)O)NC(=O)[C@H](C)NC(=O)C[C@@H](C(=O)N[C@H](C(=O)N[C@H](C(=O)N[C@@H](CO)C(=O)O)[C@@H](C)O)C(C)C)NC(=O)[C@H](c2ccccc2)NC(=O)[C@H](Cc2ccc(C(F)(F)F)cc2)NC(=O)CCNC(=O)[C@H](Cc2c[nH]c3ccccc23)NC(=O)[C@H](c2ccccc2)NC(=O)[C@H](Cc2ccccc2)N(C)C1=O
notes: as for B1
B5: Compound SP842 (peptide)
peptide: [γEtAbu]T[Phg]I[NMeAla(4-thiazolyl)]WW[Phe(4-CF3)][dY][NMePhe(3-Cl)]DP[Sar]S-OH
modifications: lactam N-11
SMILES: CC[C@H](C)[C@@H]1NC(=O)[C@H](c2ccccc2)NC(=O)[C@H]([C@@H](C)O)NC(=O)CCCN(CC)C(=O)C[C@@H](C(=O)N2CCC[C@H]2C(=O)N(C)CC(=O)N[C@@H](CO)C(=O)O)NC(=O)[C@H](Cc2cccc(Cl)c2)N(C)C(=O)[C@@H](Cc2ccc(O)cc2)NC(=O)[C@H](Cc2ccc(C(F)(F)F)cc2)NC(=O)[C@H](Cc2c[nH]c3ccccc23)NC(=O)[C@H](Cc2c[nH]c3ccccc23)NC(=O)[C@H](Cc2cscn2)N(C)C1=O
notes: as for B1

Starred links: 1 amine or outer side, 2 acyl side, 3 side chain; linkers in the order of their positions; H or OH if unused. Positions of bridges follow the written chain, without caps; N, C: chain ends. Non-standard residues stand in square brackets, D forms with d. Hyp(Et) = (2S,4R)-4-ethoxypyrrolidine-2-carboxylic acid, CCO[C@@H]1C[C@@H](C(=O)[*:2])N([*:1])C1; γEtAbu = 4-(ethylamino)butanoic acid, CCN(CCCC(=O)[*:2])[*:1]; Phe(4-CF3) = N[C@@H](Cc1ccc(C(F)(F)F)cc1)C(=O)O; NMeAla(4-thiazolyl) = CN[C@@H](Cc1cscn1)C(=O)O; NMePhe(3-Cl) = CN[C@@H](Cc1cccc(Cl)c1)C(=O)O; Met(O2) = CS(=O)(=O)CC[C@H](N)C(=O)O; NMeF = CN[C@@H](Cc1ccccc1)C(=O)O; Phg = N[C@H](C(=O)O)c1ccccc1; NMeS = CN[C@@H](CO)C(=O)O; βAla = NCCC(=O)O; Sar = CNCC(=O)O

This assay deals with T1, biotinylated Recombinant Human Tumor Necrosis Factor-alpha (Prospec, Catalog Number #CYT-223) (human, UniProt P01375 77-233, biotinylated with EZ-Link NHS-PEG4-Biotin (Thermo scientific 21329); sites not stated).
T1 construct: Bought protein; also called TNFα; tumor necrosis factor-α
T1 sequence (P01375 77-233 limits assumed): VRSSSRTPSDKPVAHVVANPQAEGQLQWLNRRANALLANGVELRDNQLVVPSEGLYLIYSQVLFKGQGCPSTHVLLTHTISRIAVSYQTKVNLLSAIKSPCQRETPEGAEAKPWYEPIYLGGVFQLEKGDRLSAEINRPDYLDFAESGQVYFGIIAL
The assay is described as follows: SPR, Biacore T200, 20 C; biotinylated TNFα captured on sensor chip CAP, peptide as analyte; KD=koff/kon from curve fitting. As for the experimental part: An SPR experiment for analyzing the interaction between synthetic peptides and TNFα was conducted using Biacore T200 (GE healthcare) at 20° C. Synthetic peptides were added to the immobilized protein, and the interaction was evaluated.
Surfactant P-20 and DMSO were added to the above phosphate buffered saline at final concentrations of 0.01 vol % and 5 vol %, respectively, and the resulting mixture was used as running buffer. CAP reagent was immobilized on a Biacore sensor chip, Series S sensor chip CAP (GE healthcare), according to the instructions, and biotinylated TNFα was immobilized. Each synthetic peptide was added at multiple concentrations, and sensorgrams for binding to the immobilized TNFα were provided to measure dissociation constants (KD).
The obtained sensorgrams were analyzed using T200 evaluation software (GE healthcare) or Scrubber2 (Biologic software). First, solvent correction for DMSO and double reference (correction by subtracting sensorgrams of flow cells where TNFα was not immobilized and sensorgrams in the case where the buffer was added) were carried out. Second, binding rate constants (kₒₙ) and dissociation rate constants (koff) were calculated from curve fitting to the corrected sensorgrams, and KDs were determined by the relational expression KD=koff/kₒₙ.
As a reminder, the Kd is the constant that tells how readily two partners part at equilibrium. Turning to B1, the Kd worked out at 20 nM.
Take B2: the Kd stood at 940 nM.
To B3 belongs 2000 nM; to B4, 250 nM; to B5, 160 nM.
